Where no end group is shown, it is not given here. [ ]: non-standard residue; d: D form. The star is where a group is joined. Bip(2'-Et-4'-OMe) = CCc1cc(OC)ccc1-c1ccc(C[C@H](N)C(=O)O)cc1; Arg(NO2) = N=C(NCCC[C@H](N)C(=O)O)N[N+](=O)[O-]; αMePhe(2,6-F2) = C[C@](N)(Cc1c(F)cccc1F)C(=O)O; αMePhe(2-F) = C[C@](N)(Cc1ccccc1F)C(=O)O; hhPhe = N[C@@H](CCCc1ccccc1)C(=O)O; hArg = N=C(N)NCCCC[C@H](N)C(=O)O; hCit = NC(=O)NCCCC[C@H](N)C(=O)O; αMeF = C[C@](N)(Cc1ccccc1)C(=O)O; Cit = NC(=O)NCCC[C@H](N)C(=O)O; NMeM = CN[C@@H](CCSC)C(=O)O; Decanoyl = CCCCCCCCCC(=O)*; Ac6c = NC1(C(=O)O)CCCCC1; Nle = CCCC[C@H](N)C(=O)O; Orn = NCCC[C@H](N)C(=O)O; Ac5c = NC1(C(=O)O)CCCC1; Ac3c = NC1(C(=O)O)CC1; Aib = CC(C)(N)C(=O)O
T1: rat PTH-1R (rat PTHR endogenously expressed on UMR-106 rat osteosarcoma cells) (rat, UniProt P25961 27-591)
T1 sequence (looked up): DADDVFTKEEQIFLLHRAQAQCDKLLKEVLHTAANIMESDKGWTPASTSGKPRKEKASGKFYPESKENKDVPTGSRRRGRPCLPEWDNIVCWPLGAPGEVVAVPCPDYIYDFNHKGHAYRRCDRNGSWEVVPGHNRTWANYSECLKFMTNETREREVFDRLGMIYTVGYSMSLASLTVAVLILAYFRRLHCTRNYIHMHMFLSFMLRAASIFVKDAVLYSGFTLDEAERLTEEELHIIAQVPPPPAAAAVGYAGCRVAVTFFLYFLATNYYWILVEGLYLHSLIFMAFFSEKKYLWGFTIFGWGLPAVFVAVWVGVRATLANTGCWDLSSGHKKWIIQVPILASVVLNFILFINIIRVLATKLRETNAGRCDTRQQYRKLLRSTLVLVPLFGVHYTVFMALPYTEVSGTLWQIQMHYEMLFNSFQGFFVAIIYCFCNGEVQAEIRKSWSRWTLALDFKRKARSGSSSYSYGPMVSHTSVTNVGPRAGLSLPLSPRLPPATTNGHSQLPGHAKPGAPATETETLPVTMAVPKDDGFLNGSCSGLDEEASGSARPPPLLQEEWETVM

B1: Seq. ID. 514 (peptide)
peptide: [Aib]V[Aib]EIQ[αMePhe(2-F)][Nle]HQ[αMePhe(2,6-F2)][Aib][αMePhe(2,6-F2)][αMePhe(2,6-F2)]
B2: Seq. ID. 712 (peptide)
peptide: [Ac3c]V[Aib]EIQ[αMePhe(2-F)][Nle]HQ[hArg]A[Arg(NO2)][αMePhe(2,6-F2)][hhPhe]
B3: Seq. ID. 30 (peptide)
peptide: [Aib]V[Ac5c]EIQ[αMePhe(2-F)][Nle]HQ[hArg]AK[αMeF]
B4: Seq. ID. 751 (peptide)
peptide: [Ac5c]V[Aib]EIQL[Nle]HQ[Orn]A[Aib][Bip(2'-Et-4'-OMe)][hhPhe]
B5: Seq. ID. 647 (peptide)
peptide: [Aib]V[Aib]EIQL[Nle]HQ[hArg]AK[Bip(2'-Et-4'-OMe)]
B6: Seq. ID. 637 (peptide)
peptide: [Ac5c]V[Ac3c]EIQL[Nle]HQ[hArg]AK(Decanoyl)[Bip(2'-Et-4'-OMe)][hhPhe]
B7: Seq. ID. 813 (peptide)
peptide: [Ac5c]V[Aib]EIQ[αMePhe(2,6-F2)][Nle]HQ[hArg]A[Cit][Bip(2'-Et-4'-OMe)][hhPhe]
B8: Seq. ID. 781 (peptide)
peptide: [Ac5c]V[Aib]EIQL[Nle]HQ[hCit]A[Cit][Bip(2'-Et-4'-OMe)][hhPhe]
B9: Seq. ID. 598 (peptide)
peptide: [Aib]V[Aib]EIQ[αMePhe(2,6-F2)][Nle]HQ[Aib][Aib][Arg(NO2)][αMePhe(2,6-F2)]
B10: Seq. ID. 694 (peptide)
peptide: [Ac3c]V[Aib]EIQ[αMePhe(2,6-F2)][Nle]HQ[hArg]A[Arg(NO2)][Bip(2'-Et-4'-OMe)][hhPhe]
B11: Seq. ID. 553 (peptide)
peptide: [Aib]V[Aib]EIQ[αMePhe(2-F)][Nle]HQ[Aib]A[Aib][αMePhe(2-F)]
B12: Seq. ID. 20 (peptide)
peptide: [Ac5c]V[Aib]EIQLMHQ[hArg][Aib]K[αMeF]
B13: Seq. ID. 521 (peptide)
peptide: [Aib]V[Aib]EIQ[αMePhe(2-F)][Nle]HQ[αMePhe(2,6-F2)]A[Arg(NO2)][αMePhe(2-F)]
B14: Seq. ID. 486 (peptide)
peptide: [Aib]V[Aib]EIQ[αMePhe(2,6-F2)][Nle]HQ[αMePhe(2,6-F2)][Aib][Cit][αMePhe(2,6-F2)]
B15: Seq. ID. 470 (peptide)
peptide: [Aib]V[Aib]EIQ[αMePhe(2,6-F2)][Nle]HQ[hCit][Aib][Arg(NO2)][αMePhe(2,6-F2)]
B16: Seq. ID. 479 (peptide)
peptide: [Ac5c]V[Aib]EIQ[αMePhe(2,6-F2)][Nle]HQ[αMePhe(2,6-F2)]A[Cit][αMePhe(2-F)]
B17: Seq. ID. 501 (peptide)
peptide: [Aib]V[Aib]EIQ[αMePhe(2,6-F2)][Nle]HQ[αMePhe(2,6-F2)]A[Aib][αMePhe(2,6-F2)]
B18: PTH (1-34) (peptide)
peptide: SVSEIQLMHNLGKHLNSMERVEWLRKKLQDVHNF
B19: Seq. ID. 678 (peptide)
peptide: [Ac3c]V[Aib]EIQL[NMeM]HQ[hArg]AK(Decanoyl)[Bip(2'-Et-4'-OMe)]
B20: Seq. ID. 540 (peptide)
peptide: [Ac5c]V[Aib]EIQ[αMePhe(2-F)][Nle]HQ[Aib][Aib][Cit][αMePhe(2-F)]
B21: Seq. ID. 23 (peptide)
peptide: [Aib]V[Ac6c]EIQL[Nle]HQ[hArg][Aib]K[αMeF]
B22: Seq. ID. 799 (peptide)
peptide: [Ac5c]V[Aib]EIQL[Nle]HQ[αMePhe(2,6-F2)]A[Aib][Bip(2'-Et-4'-OMe)][hhPhe]
B23: Seq. ID. 609 (peptide)
peptide: [Ac3c]V[Ac3c]EIQLMHQ[hArg]AK[Bip(2'-Et-4'-OMe)][hhPhe]
B24: Seq. ID. 733 (peptide)
peptide: [Ac5c]V[Aib]EIQL[Nle]HQ[hArg]A[Cit][Bip(2'-Et-4'-OMe)][hhPhe]

What follows are binders tested against T1, rat PTH-1R (rat PTHR endogenously …) (assay: cell-based or functional assay).

Compared with B1, B2 is lower in “cAMP released with respect to control, 1 nM peptide, UMR-106 cells” value (from here on “cAMP released … 1 nM peptide, UMR-106 cells”): 19 percent of control for the first, 15 percent of control for the second.

Going from B3 to B4, the “cAMP released … 1 nM peptide, UMR-106 cells” value rises from 19 percent of control to 34 percent of control.

First: B5
Second: B6
The “cAMP released … 1 nM peptide, UMR-106 cells” value of the first is higher: 56 percent of control for the first, 36 percent of control for the second.

Compared with B7, B8 is lower in “cAMP released … 1 nM peptide, UMR-106 cells” value: 82 percent of control for the first, 16 percent of control for the second.

First: B9
Second: B10
The “cAMP released … 1 nM peptide, UMR-106 cells” value of the first is higher: 38 percent of control for the first, 19 percent of control for the second.

Compared with B11, B12 is higher in “cAMP released … 1 nM peptide, UMR-106 cells” value: 38 percent of control for the first, 79 percent of control for the second.

First: B13
Second: B14
The “cAMP released … 1 nM peptide, UMR-106 cells” value of the first is lower: 21 percent of control for the first, 34 percent of control for the second.

Going from B15 to B16, the “cAMP released … 1 nM peptide, UMR-106 cells” value rises from 36 percent of control to 48 percent of control.

Compared with B17, B18 is higher in “cAMP released … 1 nM peptide, UMR-106 cells” value: 28 percent of control for the first, 41 percent of control for the second.

First: B19
Second: B20
The “cAMP released … 1 nM peptide, UMR-106 cells” value of the first is higher: 48 percent of control for the first, 16 percent of control for the second.

First: B21
Second: B22
The “cAMP released … 1 nM peptide, UMR-106 cells” value of the first is lower: 12 percent of control for the first, 38 percent of control for the second.

First: B23
Second: B24
The “cAMP released … 1 nM peptide, UMR-106 cells” value of the first is higher: 39 percent of control for the first, 36 percent of control for the second.

Going from B1 to B2, the “cAMP released with respect to control, 10 nM peptide, UMR-106 cells” value (from here on “cAMP released … 10 nM peptide, UMR-106 cells”) falls from 64 percent of control to 54 percent of control.

Compared with B3, B4 is higher in “cAMP released … 10 nM peptide, UMR-106 cells” value: 51 percent of control for the first, 88 percent of control for the second.

Compared with B5, B6 is lower in “cAMP released … 10 nM peptide, UMR-106 cells” value: 101 percent of control for the first, 98 percent of control for the second.

Compared with B7, B8 is lower in “cAMP released … 10 nM peptide, UMR-106 cells” value: 109 percent of control for the first, 57 percent of control for the second.

First: B9
Second: B10
The “cAMP released … 10 nM peptide, UMR-106 cells” value of the first is higher: 79 percent of control for the first, 64 percent of control for the second.

Compared with B11, B12 is higher in “cAMP released … 10 nM peptide, UMR-106 cells” value: 98 percent of control for the first, 111 percent of control for the second.

First: B13
Second: B14
The “cAMP released … 10 nM peptide, UMR-106 cells” value of the first is lower: 51 percent of control for the first, 82 percent of control for the second.

Going from B15 to B16, the “cAMP released … 10 nM peptide, UMR-106 cells” value rises from 88 percent of control to 99 percent of control.

Compared with B17, B18 is higher in “cAMP released … 10 nM peptide, UMR-106 cells” value: 71 percent of control for the first, 97 percent of control for the second.

Going from B19 to B20, the “cAMP released … 10 nM peptide, UMR-106 cells” value falls from 102 percent of control to 57 percent of control.

Going from B21 to B22, the “cAMP released … 10 nM peptide, UMR-106 cells” value rises from 41 percent of control to 99 percent of control.

First: B23
Second: B24
The “cAMP released … 10 nM peptide, UMR-106 cells” value of the first is higher: 101 percent of control for the first, 98 percent of control for the second.

Going from B1 to B2, the “cAMP released with respect to control, 100 nM peptide, UMR-106 cells” value (shortened to “cAMP released … 100 nM peptide, UMR-106 cells”) falls from 80 percent of control to 69 percent of control.

Compared with B3, B4 is higher in “cAMP released … 100 nM peptide, UMR-106 cells” value: 80 percent of control for the first, 116 percent of control for the second.

Compared with B5, B6 is lower in “cAMP released … 100 nM peptide, UMR-106 cells” value: 126 percent of control for the first, 110 percent of control for the second.

Going from B7 to B8, the “cAMP released … 100 nM peptide, UMR-106 cells” value falls from 110 percent of control to 75 percent of control.

Compared with B9, B10 is lower in “cAMP released … 100 nM peptide, UMR-106 cells” value: 119 percent of control for the first, 80 percent of control for the second.

Going from B11 to B12, the “cAMP released … 100 nM peptide, UMR-106 cells” value rises from 116 percent of control to 121 percent of control.

Compared with B13, B14 is higher in “cAMP released … 100 nM peptide, UMR-106 cells” value: 69 percent of control for the first, 104 percent of control for the second.

First: B15
Second: B16
The “cAMP released … 100 nM peptide, UMR-106 cells” value of the first is higher: 116 percent of control for the first, 112 percent of control for the second.

First: B17
Second: B18
The “cAMP released … 100 nM peptide, UMR-106 cells” value of the first is lower: 87 percent of control for the first, 100 percent of control for the second.

Going from B19 to B20, the “cAMP released … 100 nM peptide, UMR-106 cells” value falls from 112 percent of control to 75 percent of control.

Compared with B21, B22 is higher in “cAMP released … 100 nM peptide, UMR-106 cells” value: 69 percent of control for the first, 106 percent of control for the second.

First: B23
Second: B24
The “cAMP released … 100 nM peptide, UMR-106 cells” value of the first is higher: 120 percent of control for the first, 110 percent of control for the second.

Source: patent US8383581B2, “Short-chain peptides as parathyroid hormone (PTH) receptor agonist” (Cadila Healthcare Limited, priority 2009, dated 2013)
